Assay results published in PMC10509167, “Identification and characterization of endo-α-, exo-α-, and exo-β-D-arabinofuranosidases degrading lipoarabinomannan and arabinogalactan of mycobacteria” (Nature Communications, 2023).

Molecular target: the molecule itself
Assay: crystal structure; ExoMA2 in complex with Tris (1.75 Å) and with β-D-Araf (1.35 Å); dimer in the asymmetric unit; sitting-drop vapor diffusion, 20 °C

B1: ExoMA2 (MIAR_33170), GH116 exo-β-D-arabinofuranosidase from Microbacterium arabinogalactanolyticum, recombinant (enzyme, UniProt A0AAJ6N6D6 1-867, looked up)
chain: MSKIKSRRARRIPHTAESVAFPLGGIGTGNVSLGARGELRDWEFENLPDKGRLNPRSFFAIHAAPQGGPSATRVLEARSSGRHDRDAGYGFDELAGLPRLDSAGLHGEYPVVDIDFTDATLPVTVSLHAFTPLVPLDADASGIPAAVLRYRVVNPGDAPVTVTVVGSMSHTAGRGAPGPDAPWGMRGTQSVRWRESDGIRGLDFDIDLDHDDPGYGTMSLTTTDSSTTVKPQWVTSYWPDGARLFWNDLADDGLLAPEARLTLEDKPRGLFAERDADPDAPALTEEQMLAKLPRVRTGSLGIVHTLAPGEERDFEFVLAWSFPNRRRGWHGHIIFDDALEDGAPDLRDELGPIVRNHYAVRWPDAWAAAAQLHRDLPALEGATDAFVEELYGGSLDPVLADAVGANIAALRSTTCFVLESPTPELGDGPVFAAWEGSFDHGGSCEGTCTHVWSYAQTAAWLFPGLERSARRAEYLLETDESGAQKFRGNRIFGAPRWFIGPAVDGQLGTFLRLHREWRFCGDDEFLRELWPAAARTLDYAAREWDHDGDGLLDGEMHNTYDIEFHGVEPLSNIIHLAALRAGVRMAGHLGDTARAQEWALRADHVAAAIEGVLWNGEYYRQVIDDVDAHRYQYGDGVLSDQLLGQFHAFLGGLGYLLPEAHVRSALDAIVQHNHRGDLRDHESTQRVYALNDEGGLLLASWPEGGRPALPFVYADEVWTGIEHQVAVSLLFAGRYDDALRIERTLRARYDGAHRSPWNEIECGNHYARSLASWGLLIGASGAQWDAGARTLSFDPVLPGDARFLFTTATGWGGVEIGDDVITLRLHGGALDLDELRLRGEVAGRGIHLDAGETRTLTLTLEHHHHHH
notes: ExoMA2, product of gene MIAR_33170 of Microbacterium arabinogalactanolyticum JCM 9171; primers are in Supplementary Data 3; source: E. coli BL21 (DE3), purified (IMAC, anion exchange chromatography, SEC)
  stoichiometry N: 2
